Experiments:
Conditions in all cases: protein: recombinant; tags: MBP; label: 32P
MBP-SUV39H1 42-106 R84A [1] = biological target: T1, MBP-SUV39H1 42-106 R84A (Homo sapiens, UniProt O43463 42-106, R84A); assay: EMSA; 20 mM Tris-HCl pH 7.4, 50 mM NaCl, 10% glycerol, ~4 U RNase inhibitor, room temperature 10 min; native gel 0.5X TBE at 25 C; filter binding on nitrocellulose in the same buffer
T1 sequence: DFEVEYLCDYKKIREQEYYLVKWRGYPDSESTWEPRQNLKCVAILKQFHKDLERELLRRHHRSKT

MBP-SUV39H1 42-106 R55A [2] = biological target: T2, MBP-SUV39H1 42-106 R55A (Homo sapiens, UniProt O43463 42-106, R55A); assay: as above
T2 sequence: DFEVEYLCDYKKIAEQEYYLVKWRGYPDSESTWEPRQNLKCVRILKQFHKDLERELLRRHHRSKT

MBP-SUV39H1 42-106 R84A [3] = biological target: T1, MBP-SUV39H1 42-106 R84A; assay: filter binding; 20 mM Tris-HCl pH 7.4, 50 mM NaCl, 10% glycerol, ~4 U RNase inhibitor, room temperature 10 min; native gel 0.5X TBE at 25 C; filter binding on nitrocellulose in the same buffer
MBP-SUV39H1 42-106 R55A [4] = biological target: T2, MBP-SUV39H1 42-106 R55A; assay: as above

Measured: binding signal

AUAUGGGAACCACUGAUCC (ssRNA) [sense 19mer ssRNA]
> 40 fold lower affinity than WT: MBP-SUV39H1 42-106 R84A [1] | MBP-SUV39H1 42-106 R55A [2] | MBP-SUV39H1 42-106 R84A [3] | MBP-SUV39H1 42-106 R55A [4]
